According to PMC2115487:

Molecular target: TGF-beta receptor(s) on CCL64 mink lung epithelial cells (mink (endogenous in CCL64))
Assay: radioligand binding

## Human TGF-beta (type 1), 125I-labeled (ligand)
  Kd: 8.3 pM
  increase of specific binding with 100 ug/ml heparin over no heparin: 46%
  specific binding, cpm of the 100% value (without heparin): 325 cpm
